Laboratory results published in patent US20230357348A1 (AstraZeneca / MedImmune, published 2023).
Starred links: 1 amine or outer side, 2 acyl side, 3 side chain; linkers in the order of their positions; H or OH if unused. Non-standard residues stand in square brackets, D forms with d. Groups on a side chain read outwards from the residue. No end group written: not given here. *: point of attachment. C20 diacid = O=C(O)CCCCCCCCCCCCCCCCCCC(=O)*; C18 diacid = O=C(O)CCCCCCCCCCCCCCCCC(=O)*; γGlu = O=C(O)[C@H](CCC(=O)[*:2])N[*:1]; αMeF = C[C@](N)(Cc1ccccc1)C(=O)O; AEEA = NCCOCCOCC(=O)O; Aib = CC(C)(N)C(=O)O

Key:
[1] = molecular target: human glucagon receptor (hGCGR) (human, UniProt P47871 26-477); experiment: cell-based or functional assay
Chain of human glucagon receptor (hGCGR) (P47871 26-477): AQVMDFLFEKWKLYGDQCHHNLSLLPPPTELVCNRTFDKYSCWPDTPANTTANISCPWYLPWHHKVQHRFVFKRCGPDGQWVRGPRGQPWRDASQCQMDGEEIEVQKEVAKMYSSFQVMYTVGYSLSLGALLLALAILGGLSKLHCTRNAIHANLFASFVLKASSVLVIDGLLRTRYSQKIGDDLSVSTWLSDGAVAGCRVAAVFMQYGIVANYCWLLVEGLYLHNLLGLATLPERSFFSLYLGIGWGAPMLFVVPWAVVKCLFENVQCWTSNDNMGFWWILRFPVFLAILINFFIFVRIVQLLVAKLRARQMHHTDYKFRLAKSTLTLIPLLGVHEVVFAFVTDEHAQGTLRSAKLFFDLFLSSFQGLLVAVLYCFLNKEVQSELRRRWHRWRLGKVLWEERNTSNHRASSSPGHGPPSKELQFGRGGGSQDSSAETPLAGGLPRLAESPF

[2] = molecular target: human GLP-1 receptor (hGLP-1R) (human, UniProt P43220 24-463); experiment: cell-based or functional assay

| Binder | hGluc-R EC50 (pM) [1] [pM] | hGLP-1R EC50 (pM) [2] [pM] |
| --- | --- | --- |
| H[Aib]QGTFTSDVSK[αMeF]LDTK([AEEA-AEEA-γGlu-C18 diacid])RARDFVQWLLA[Aib]G-NH2 (N-terminus assumed; SMILES CC(C)C[C@H](NC(=O)[C@H](CC(C)C)NC(=O)[C@H](Cc1c[nH]c2ccccc12)NC(=O)[C@H](CCC(N)=O)NC(=O)[C@@H](NC(=O)[C@H](Cc1ccccc1)NC(=O)[C@H](CC(=O)O)NC(=O)[C@H](CCCNC(=N)N)NC(=O)[C@H](C)NC(=O)[C@H](CCCNC(=N)N)NC(=O)[C@H](CCCCNC(=O)COCCOCCNC(=O)COCCOCCNC(=O)CC[C@H](NC(=O)CCCCCCCCCCCCCCCCC(=O)O)C(=O)O)NC(=O)[C@@H](NC(=O)[C@H](CC(=O)O)NC(=O)[C@H](CC(C)C)NC(=O)[C@](C)(Cc1ccccc1)NC(=O)[C@H](CCCCN)NC(=O)[C@H](CO)NC(=O)[C@@H](NC(=O)[C@H](CC(=O)O)NC(=O)[C@H](CO)NC(=O)[C@@H](NC(=O)[C@H](Cc1ccccc1)NC(=O)[C@@H](NC(=O)CNC(=O)[C@H](CCC(N)=O)NC(=O)C(C)(C)NC(=O)[C@@H](N)Cc1c[nH]cn1)[C@@H](C)O)[C@@H](C)O)C(C)C)[C@@H](C)O)C(C)C)C(=O)N[C@@H](C)C(=O)NC(C)(C)C(=O)NCC(N)=O) [Peptide 474] | 56.9 | 8.04 |
| H[Aib]QGTFTSDVSK[αMeF]LDKK([AEEA-AEEA-γGlu-C20 diacid])RARDFVQWLL[Aib]E-NH2 (N-terminus assumed; SMILES CC(C)C[C@H](NC(=O)[C@H](Cc1c[nH]c2ccccc12)NC(=O)[C@H](CCC(N)=O)NC(=O)[C@@H](NC(=O)[C@H](Cc1ccccc1)NC(=O)[C@H](CC(=O)O)NC(=O)[C@H](CCCNC(=N)N)NC(=O)[C@H](C)NC(=O)[C@H](CCCNC(=N)N)NC(=O)[C@H](CCCCNC(=O)COCCOCCNC(=O)COCCOCCNC(=O)CC[C@H](NC(=O)CCCCCCCCCCCCCCCCCCC(=O)O)C(=O)O)NC(=O)[C@H](CCCCN)NC(=O)[C@H](CC(=O)O)NC(=O)[C@H](CC(C)C)NC(=O)[C@](C)(Cc1ccccc1)NC(=O)[C@H](CCCCN)NC(=O)[C@H](CO)NC(=O)[C@@H](NC(=O)[C@H](CC(=O)O)NC(=O)[C@H](CO)NC(=O)[C@@H](NC(=O)[C@H](Cc1ccccc1)NC(=O)[C@@H](NC(=O)CNC(=O)[C@H](CCC(N)=O)NC(=O)C(C)(C)NC(=O)[C@@H](N)Cc1c[nH]cn1)[C@@H](C)O)[C@@H](C)O)C(C)C)C(C)C)C(=O)N[C@@H](CC(C)C)C(=O)NC(C)(C)C(=O)N[C@@H](CCC(=O)O)C(N)=O) [Peptide 470] | 30.3 | 55.9 |
| H[Aib]QGTFTSDVSK[αMeF]LDTK([AEEA-AEEA-γGlu-C18 diacid])RAQDFVQWLLE[Aib]G-NH2 (N-terminus assumed; SMILES CC(C)C[C@H](NC(=O)[C@H](Cc1c[nH]c2ccccc12)NC(=O)[C@H](CCC(N)=O)NC(=O)[C@@H](NC(=O)[C@H](Cc1ccccc1)NC(=O)[C@H](CC(=O)O)NC(=O)[C@H](CCC(N)=O)NC(=O)[C@H](C)NC(=O)[C@H](CCCNC(=N)N)NC(=O)[C@H](CCCCNC(=O)COCCOCCNC(=O)COCCOCCNC(=O)CC[C@H](NC(=O)CCCCCCCCCCCCCCCCC(=O)O)C(=O)O)NC(=O)[C@@H](NC(=O)[C@H](CC(=O)O)NC(=O)[C@H](CC(C)C)NC(=O)[C@](C)(Cc1ccccc1)NC(=O)[C@H](CCCCN)NC(=O)[C@H](CO)NC(=O)[C@@H](NC(=O)[C@H](CC(=O)O)NC(=O)[C@H](CO)NC(=O)[C@@H](NC(=O)[C@H](Cc1ccccc1)NC(=O)[C@@H](NC(=O)CNC(=O)[C@H](CCC(N)=O)NC(=O)C(C)(C)NC(=O)[C@@H](N)Cc1c[nH]cn1)[C@@H](C)O)[C@@H](C)O)C(C)C)[C@@H](C)O)C(C)C)C(=O)N[C@@H](CC(C)C)C(=O)N[C@@H](CCC(=O)O)C(=O)NC(C)(C)C(=O)NCC(N)=O) [Peptide 466] | 131 | 35.6 |
| H[Aib]QGTFTSDVSK[αMeF]LDRK([AEEA-AEEA-γGlu-C18 diacid])RARDFVQWLL[Aib]E-NH2 (N-terminus assumed; SMILES CC(C)C[C@H](NC(=O)[C@H](Cc1c[nH]c2ccccc12)NC(=O)[C@H](CCC(N)=O)NC(=O)[C@@H](NC(=O)[C@H](Cc1ccccc1)NC(=O)[C@H](CC(=O)O)NC(=O)[C@H](CCCNC(=N)N)NC(=O)[C@H](C)NC(=O)[C@H](CCCNC(=N)N)NC(=O)[C@H](CCCCNC(=O)COCCOCCNC(=O)COCCOCCNC(=O)CC[C@H](NC(=O)CCCCCCCCCCCCCCCCC(=O)O)C(=O)O)NC(=O)[C@H](CCCNC(=N)N)NC(=O)[C@H](CC(=O)O)NC(=O)[C@H](CC(C)C)NC(=O)[C@](C)(Cc1ccccc1)NC(=O)[C@H](CCCCN)NC(=O)[C@H](CO)NC(=O)[C@@H](NC(=O)[C@H](CC(=O)O)NC(=O)[C@H](CO)NC(=O)[C@@H](NC(=O)[C@H](Cc1ccccc1)NC(=O)[C@@H](NC(=O)CNC(=O)[C@H](CCC(N)=O)NC(=O)C(C)(C)NC(=O)[C@@H](N)Cc1c[nH]cn1)[C@@H](C)O)[C@@H](C)O)C(C)C)C(C)C)C(=O)N[C@@H](CC(C)C)C(=O)NC(C)(C)C(=O)N[C@@H](CCC(=O)O)C(N)=O) [Peptide 473] | 14.1 | 11.5 |
| H[Aib]QGTFTSDVSK[αMeF]LDRK([AEEA-AEEA-γGlu-C20 diacid])RARDFVQWLL[Aib]E-NH2 [Peptide 471] | 63.6 | 102 |
| H[Aib]QGTFTSDVSK[αMeF]LDKK([AEEA-AEEA-γGlu-C18 diacid])RARDFVQWLL[Aib]E-NH2 (N-terminus assumed; SMILES CC(C)C[C@H](NC(=O)[C@H](Cc1c[nH]c2ccccc12)NC(=O)[C@H](CCC(N)=O)NC(=O)[C@@H](NC(=O)[C@H](Cc1ccccc1)NC(=O)[C@H](CC(=O)O)NC(=O)[C@H](CCCNC(=N)N)NC(=O)[C@H](C)NC(=O)[C@H](CCCNC(=N)N)NC(=O)[C@H](CCCCNC(=O)COCCOCCNC(=O)COCCOCCNC(=O)CC[C@H](NC(=O)CCCCCCCCCCCCCCCCC(=O)O)C(=O)O)NC(=O)[C@H](CCCCN)NC(=O)[C@H](CC(=O)O)NC(=O)[C@H](CC(C)C)NC(=O)[C@](C)(Cc1ccccc1)NC(=O)[C@H](CCCCN)NC(=O)[C@H](CO)NC(=O)[C@@H](NC(=O)[C@H](CC(=O)O)NC(=O)[C@H](CO)NC(=O)[C@@H](NC(=O)[C@H](Cc1ccccc1)NC(=O)[C@@H](NC(=O)CNC(=O)[C@H](CCC(N)=O)NC(=O)C(C)(C)NC(=O)[C@@H](N)Cc1c[nH]cn1)[C@@H](C)O)[C@@H](C)O)C(C)C)C(C)C)C(=O)N[C@@H](CC(C)C)C(=O)NC(C)(C)C(=O)N[C@@H](CCC(=O)O)C(N)=O) [Peptide 472] | 11.1 | 7.63 |
| H[Aib]QGTFTSDVSK[αMeF]LDTK([AEEA-AEEA-γGlu-γGlu-C20 diacid])RAQDFVQWLLE[Aib]G-NH2 (N-terminus assumed; SMILES CC(C)C[C@H](NC(=O)[C@H](Cc1c[nH]c2ccccc12)NC(=O)[C@H](CCC(N)=O)NC(=O)[C@@H](NC(=O)[C@H](Cc1ccccc1)NC(=O)[C@H](CC(=O)O)NC(=O)[C@H](CCC(N)=O)NC(=O)[C@H](C)NC(=O)[C@H](CCCNC(=N)N)NC(=O)[C@H](CCCCNC(=O)COCCOCCNC(=O)COCCOCCNC(=O)CC[C@H](NC(=O)CC[C@H](NC(=O)CCCCCCCCCCCCCCCCCCC(=O)O)C(=O)O)C(=O)O)NC(=O)[C@@H](NC(=O)[C@H](CC(=O)O)NC(=O)[C@H](CC(C)C)NC(=O)[C@](C)(Cc1ccccc1)NC(=O)[C@H](CCCCN)NC(=O)[C@H](CO)NC(=O)[C@@H](NC(=O)[C@H](CC(=O)O)NC(=O)[C@H](CO)NC(=O)[C@@H](NC(=O)[C@H](Cc1ccccc1)NC(=O)[C@@H](NC(=O)CNC(=O)[C@H](CCC(N)=O)NC(=O)C(C)(C)NC(=O)[C@@H](N)Cc1c[nH]cn1)[C@@H](C)O)[C@@H](C)O)C(C)C)[C@@H](C)O)C(C)C)C(=O)N[C@@H](CC(C)C)C(=O)N[C@@H](CCC(=O)O)C(=O)NC(C)(C)C(=O)NCC(N)=O) [Peptide 469] | 538 | 255 |
| H[Aib]QGTFTSDVSK[αMeF]LDTK([AEEA-AEEA-γGlu-γGlu-C18 diacid])RAQDFVQWLLE[Aib]G-NH2 [Peptide 468] | 292 | 67.5 |
| H[Aib]QGTFTSDVSK[αMeF]LDTK([AEEA-AEEA-γGlu-C20 diacid])RARDFVQWLLA[Aib]G-NH2 (N-terminus assumed; SMILES CC(C)C[C@H](NC(=O)[C@H](CC(C)C)NC(=O)[C@H](Cc1c[nH]c2ccccc12)NC(=O)[C@H](CCC(N)=O)NC(=O)[C@@H](NC(=O)[C@H](Cc1ccccc1)NC(=O)[C@H](CC(=O)O)NC(=O)[C@H](CCCNC(=N)N)NC(=O)[C@H](C)NC(=O)[C@H](CCCNC(=N)N)NC(=O)[C@H](CCCCNC(=O)COCCOCCNC(=O)COCCOCCNC(=O)CC[C@H](NC(=O)CCCCCCCCCCCCCCCCCCC(=O)O)C(=O)O)NC(=O)[C@@H](NC(=O)[C@H](CC(=O)O)NC(=O)[C@H](CC(C)C)NC(=O)[C@](C)(Cc1ccccc1)NC(=O)[C@H](CCCCN)NC(=O)[C@H](CO)NC(=O)[C@@H](NC(=O)[C@H](CC(=O)O)NC(=O)[C@H](CO)NC(=O)[C@@H](NC(=O)[C@H](Cc1ccccc1)NC(=O)[C@@H](NC(=O)CNC(=O)[C@H](CCC(N)=O)NC(=O)C(C)(C)NC(=O)[C@@H](N)Cc1c[nH]cn1)[C@@H](C)O)[C@@H](C)O)C(C)C)[C@@H](C)O)C(C)C)C(=O)N[C@@H](C)C(=O)NC(C)(C)C(=O)NCC(N)=O) [Peptide 475] | 61.5 | 6.75 |
